T1: recombinant human TRAIL R1 (DR4)/Fc chimera (human, UniProt O00220 24-239)
T1 construct: bought (R&D Systems); not shown: Fc of the bought chimera (R&D Systems)
T1 sequence: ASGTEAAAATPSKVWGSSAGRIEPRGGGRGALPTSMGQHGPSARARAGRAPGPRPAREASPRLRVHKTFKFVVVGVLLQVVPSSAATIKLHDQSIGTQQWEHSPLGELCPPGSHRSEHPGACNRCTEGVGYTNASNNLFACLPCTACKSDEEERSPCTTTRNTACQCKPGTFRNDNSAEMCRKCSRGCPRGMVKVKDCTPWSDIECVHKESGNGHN

B1: 119p83P1D10 (designed binder)
chain: ALQTVCLKGTKVHMKCFLAFTQTKTFHEASEDCISRGGTLSTPQTGSENDALYEYLRQSVGNEAEIWLGLNGWLEGVGWVDMTGARIAYKNWGRRRNLQPDGGWPFSNENCAVLSGAANGKWFDKRCRDQLPYICQFGIV
notes: on phage
B2: 119p94P1B8 (designed binder)
chain: ALQTVCLKGTKVHMKCFLAFTQTKTFHEASEDCISRGGTLSTPQTGSENDALYEYLRQSVGNEAEIWLGLNGWLEGVGWVDMTGARIAYKNWWSYWDTQPDGGWPFSNENCAVLSGAANGKWFDKRCRDQLPYICQFGIV
notes: on phage
B3: 119p94P1H3 (designed binder)
chain: ALQTVCLKGTKVHMKCFLAFTQTKTFHEASEDCISRGGTLSTPQTGSENDALYEYLRQSVGNEAEIWLGLNGWLEGVGWVDMTGARIAYKNWSLSWHPQPDGGWPFSNENCAVLSGAANGKWFDKRCRDQLPYICQFGIV
notes: on phage
B4: 119p83P1H12 (designed binder)
chain: ALQTVCLKGTKVHMKCFLAFTQTKTFHEASEDCISRGGTLSTPQTGSENDALYEYLRQSVGNEAEIWLGLNGWLEGVGWVDMTGARIAYKNWGTHISSQPDGGWPFSNENCAVLSGAANGKWFDKRCRDQLPYICQFGIV
notes: on phage
B5: 119p83P1G3 (designed binder)
chain: ALQTVCLKGTKVHMKCFLAFTQTKTFHEASEDCISRGGTLSTPQTGSENDALYEYLRQSVGNEAEIWLGLNGWLEGVGWVDMTGARIAYKNWYVRSEGQPDGGWPFSNENCAVLSGAANGKWFDKRCRDQLPYICQFGIV
notes: on phage
B6: 119p94P1D11 (designed binder)
chain: ALQTVCLKGTKVHMKCFLAFTQTKTFHEASEDCISRGGTLSTPQTGSENDALYEYLRQSVGNEAEIWLGLNGWLEGVGWVDMTGARIAYKNWGSTGEKQPDGGWPFSNENCAVLSGAANGKWFDKRCRDQLPYICQFGIV
notes: on phage
B7: 119p83P1G12 (designed binder)
chain: ALQTVCLKGTKVHMKCFLAFTQTKTFHEASEDCISRGGTLSTPQTGSENDALYEYLRQSVGNEAEIWLGLNGWLEGVGWVDMTGARIAYKNWGSYGPFQPDGGWPFSNENCAVLSGAANGKWFDKRCRDQLPYICQFGIV
notes: on phage
B8: 119p83P1H8 (designed binder)
chain: ALQTVCLKGTKVHMKCFLAFTQTKTFHEASEDCISRGGTLSTPQTGSENDALYEYLRQSVGNEAEIWLGLNGWLEGVGWVDMTGARIAYKNWGGSISAQPDGGWPFSNENCAVLSGAANGKWFDKRCRDQLPYICQFGIV
notes: on phage
B9: 119p83P1H3 (designed binder)
chain: ALQTVCLKGTKVHMKCFLAFTQTKTFHEASEDCISRGGTLSTPQTGSENDALYEYLRQSVGNEAEIWLGLNGWLEGVGWVDMTGARIAYKNWSEDRPGQPDGGWPFSNENCAVLSGAANGKWFDKRCRDQLPYICQFGIV
notes: on phage
B10: 119p94P1E10 (designed binder)
chain: ALQTVCLKGTKVHMKCFLAFTQTKTFHEASEDCISRGGTLSTPQTGSENDALYEYLRQSVGNEAEIWLGLNGWLEGVGWVDMTGARIAYKNWRVPSLRQPDGGWPFSNENCAVLSGAANGKWFDKRCRDQLPYICQFGIV
notes: on phage
B11: 119p94P1D4 (designed binder)
chain: ALQTVCLKGTKVHMKCFLAFTQTKTFHEASEDCISRGGTLSTPQTGSENDALYEYLRQSVGNEAEIWLGLNGWLEGVGWVDMTGARIAYKNWAAFPVEQPDGGWPFSNENCAVLSGAANGKWFDKRCRDQLPYICQFGIV
notes: on phage
B12: 119p94P1B2 (designed binder)
chain: ALQTVCLKGTKVHMKCFLAFTQTKTFHEASEDCISRGGTLSTPQTGSENDALYEYLRQSVGNEAEIWLGLNGWLEGVGWVDMTGARIAYKNWWFPTLSQPDGGWPFSNENCAVLSGAANGKWFDKRCRDQLPYICQFGIV
notes: on phage
B13: 119p83P1D11 (designed binder)
chain: ALQTVCLKGTKVHMKCFLAFTQTKTFHEASEDCISRGGTLSTPQTGSENDALYEYLRQSVGNEAEIWLGLNGWLEGVGWVDMTGARIAYKNWQVHARSQPDGGWPFSNENCAVLSGAANGKWFDKRCRDQLPYICQFGIV
notes: on phage
B14: 119p83P1F12 (designed binder)
chain: ALQTVCLKGTKVHMKCFLAFTQTKTFHEASEDCISRGGTLSTPQTGSENDALYEYLRQSVGNEAEIWLGLNGWLEGVGWVDMTGARIAYKNWFIPADRQPDGGWPFSNENCAVLSGAANGKWFDKRCRDQLPYICQFGIV
notes: on phage
B15: 119p94P1D2 (designed binder)
chain: ALQTVCLKGTKVHMKCFLAFTQTKTFHEASEDCISRGGTLSTPQTGSENDALYEYLRQSVGNEAEIWLGLNGWLEGVGWVDMTGARIAYKNWLDVTKTQPDGGWPFSNENCAVLSGAANGKWFDKRCRDQLPYICQFGIV
notes: on phage
B16: 119p94P1B6 (designed binder)
chain: ALQTVCLKGTKVHMKCFLAFTQTKTFHEASEDCISRGGTLSTPQTGSENDALYEYLRQSVGNEAEIWLGLNGWLEGVGWVDMTGARIAYKNWHPQGDRQPDGGWPFSNENCAVLSGAANGKWFDKRCRDQLPYICQFGIV
notes: on phage
B17: 119p83P1H7 (designed binder)
chain: ALQTVCLKGTKVHMKCFLAFTQTKTFHEASEDCISRGGTLSTPQTGSENDALYEYLRQSVGNEAEIWLGLNGWLEGVGWVDMTGARIAYKNWVNHGVGQPDGGWPFSNENCAVLSGAANGKWFDKRCRDQLPYICQFGIV
notes: on phage
B18: 119p94P1E7 (designed binder)
chain: ALQTVCLKGTKVHMKCFLAFTQTKTFHEASEDCISRGGTLSTPQTGSENDALYEYLRQSVGNEAEIWLGLNGWLEGVGWVDMTGARIAYKNWIWSRIEQPDGGWPFSNENCAVLSGAANGKWFDKRCRDQLPYICQFGIV
notes: on phage
B19: 119p94P1A4 (designed binder)
chain: ALQTVCLKGTKVHMKCFLAFTQTKTFHEASEDCISRGGTLSTPQTGSENDALYEYLRQSVGNEAEIWLGLNGWLEGVGWVDMTGARIAYKNWFAEFFLQPDGGWPFSNENCAVLSGAANGKWFDKRCRDQLPYICQFGIV
notes: on phage
B20: 119p94P1G1 (designed binder)
chain: ALQTVCLKGTKVHMKCFLAFTQTKTFHEASEDCISRGGTLSTPQTGSENDALYEYLRQSVGNEAEIWLGLNGWLEGVGWVDMTGARIAYKNWGEVIAPQPDGGWPFSNENCAVLSGAANGKWFDKRCRDQLPYICQFGIV
notes: on phage
B21: 119p83P1H5 (designed binder)
chain: ALQTVCLKGTKVHMKCFLAFTQTKTFHEASEDCISRGGTLSTPQTGSENDALYEYLRQSVGNEAEIWLGLNGWLEGVGWVDMTGARIAYKNWGTGVMGQPDGGWPFSNENCAVLSGAANGKWFDKRCRDQLPYICQFGIV
notes: on phage

The assay addresses T1, recombinant human TRAIL R1 (DR4)/Fc …. Nature of the assay: phage ELISA on DR4/Fc.
For B1, the binding result is recorded as “binds”.
The same measure for B2: “binds”; for B3: “binds”; for B4: “binds”.
The value for B5 was “binds”; that for B6 was “binds”; that for B7 was “binds”.
The value for B8 was “binds”; that for B9 was “binds”; that for B10 was “binds”.
Consider B11, for which the binding result is “binds”.
The same measure for B12: “binds”; for B13: “binds”.
Take B14: the binding result is given as “binds”.
The same measure for B15: “binds”; for B16: “binds”; for B17: “binds”.
As for B18, the binding result was “binds”.
Turning to B19, the binding result is “binds”.
The same measure for B20: “binds”; for B21: “binds”.

The values are drawn from patent US20120021995A1 (published 2012).
